Laboratory results taken from PMC9166738.

Experiments:
[1] = molecular target: Formate dehydrogenase catalytic subunit Fdh3A with N-terminal Strep-tag (Thermococcus onnurineus NA1); assay: SEC; Strep-tag purified CFOR complex on a calibrated Superdex 200 10/300 GL column in buffer W, 0.5 ml/min, anaerobic; complex formed in cells and co-purified beforehand
[2] = molecular target: Fdh3B-CodhA fusion protein with (GGGGS)1 linker (Thermococcus onnurineus NA1); assay: as above

stoichiometry N [1]	stoichiometry N [2]	Substance
1	–	Fdh3B-CodhA fusion protein with (GGGGS)1 linker
–	2	CO dehydrogenase catalytic subunit CodhB (enzyme)
